The target in one experiment is human CD40 (human) (UniProt P25942). The experiment in a line: Biacore.
For the next experiment, the target named is T1, soluble CD40 (Homo sapiens (Human), UniProt P25942 20-193).
T1 construct: Soluble CD40 as used in ELISA-type assays; the real soluble form is shorter
The experiment in a line: ELISA-type assays. Background: In an ELISA, binding on a coated surface is turned into a signal by an enzyme label.

T1 sequence (P25942 20-193): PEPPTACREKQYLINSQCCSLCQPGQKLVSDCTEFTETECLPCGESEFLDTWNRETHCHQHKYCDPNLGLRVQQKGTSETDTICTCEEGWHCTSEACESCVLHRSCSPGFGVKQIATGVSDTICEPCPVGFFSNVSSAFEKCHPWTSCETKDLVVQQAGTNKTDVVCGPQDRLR

B1: monoclonal antibody HCD122 (antibody, human IgG1, kappa, V domains shown)
VH: QVQLVESGGGVVQPGRSLRLSCAASGFTFSSYGMHWVRQAPGKGLEWVAVISYEESNRYHADSVKGRFTISRDNSKITLYLQMNSLRTEDTAVYYCARDGGIAAPGPDYWGQGTLVTVSS
VL: DIVMTQSPLSLTVTPGEPASISCRSSQSLLYSNGYNYLDWYLQKPGQSPQVLISLGSNRASGVPDRFSGSGSGTDFTLKISRVEAEDVGVYYCMQARQTPFTFGPGTKVDIRR
notes: Fully human IgG1 kappa anti-CD40 monoclonal antibody from the hybridoma deposited as ATCC PTA-5543; also called CHIR-12.12
Take B1: in the experiment with human CD40 (human), the Kd (as a rule, the concentration at which binding is half-saturated) amounted to 0.5 nM. Further, the binding result in the experiment with soluble CD40 is on record as “binds”.

The values are drawn from patent WO2012075111A1 (dated 2012).
